Where two headings read alike, the source gives them in different places. Square brackets hold non-standard residues; d marks the D form. Ends that are not written are not given here.
Columns and labels:
[1] = target: T1, CGRP1 receptor (CRLR/RAMP1 complex) of human neuroblastoma SK-N-MC cells (human, UniProt Q16602 23-461; O60894 27-148); assay: cell-based or functional assay
[2] = target: T1, CGRP1 receptor (CRLR/RAMP1 complex) of …; assay: cell-based or functional assay; remark: listed apart in the source
[3] = target: T1, CGRP1 receptor (CRLR/RAMP1 complex) of …; assay: cell-based or functional assay; remark: listed apart in the source
[4] = target: T1, CGRP1 receptor (CRLR/RAMP1 complex) of …; assay: cell-based or functional assay; remark: listed apart in the source
[5] = target: T1, CGRP1 receptor (CRLR/RAMP1 complex) of …; assay: 125I-hαCGRP competition, SK-N-MC membranes
Protocol: CGRP₁ binding experiments. […] The plates were incubated at room temperature for 2 hour with shaking at 60 rpm, then the contents of each well were filtered over 0.5% polyethyleneimine (PEI)-treated (at least one hour) GF/C 96-well filter plates. The GF/C filter plates were washed 6 times with ice-cold 50 mM Tris, pH 7.5 and dried in an oven at 55 C for 1 hour. The bottoms of the GF/C plates were then sealed, and 40 μl Microscint™ 20 was added to each well, then the tops of the GF/C plates were sealed with TopSeal™-A, a press-on adhesive sealing film, and the GF/C plates were counted with TopCount NXT (Packard). The data were analyzed by using ActivityBase (IDBS) or Prizm (GraphPad) software.

T1 sequence (Q16602 23-461, chain 1 of 2): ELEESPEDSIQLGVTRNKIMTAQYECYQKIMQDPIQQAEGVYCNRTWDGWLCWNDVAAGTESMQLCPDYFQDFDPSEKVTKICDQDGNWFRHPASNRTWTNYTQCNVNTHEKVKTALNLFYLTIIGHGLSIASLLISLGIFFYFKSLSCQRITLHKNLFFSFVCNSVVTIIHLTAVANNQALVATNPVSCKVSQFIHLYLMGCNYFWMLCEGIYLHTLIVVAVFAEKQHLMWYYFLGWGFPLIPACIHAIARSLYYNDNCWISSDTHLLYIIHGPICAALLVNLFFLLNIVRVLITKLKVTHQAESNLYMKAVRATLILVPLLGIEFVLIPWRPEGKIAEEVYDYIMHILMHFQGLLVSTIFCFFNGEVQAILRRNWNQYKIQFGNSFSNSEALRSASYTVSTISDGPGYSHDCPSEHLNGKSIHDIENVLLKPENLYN
T1 sequence (O60894 27-148, chain 2 of 2): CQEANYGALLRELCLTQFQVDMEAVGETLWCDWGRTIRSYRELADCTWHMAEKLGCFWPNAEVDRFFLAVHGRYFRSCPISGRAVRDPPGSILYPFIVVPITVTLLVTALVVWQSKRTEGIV

Binder | IC50 [1] [nM] | IC50 [4] [nM] | other results
Ac-WVTHRLAGLLSRSGGVKRNNFVPTDVGPFAF-NH2 (not fully specified (residue 17); printed as Ac-WVTHRLAGLLSRSGGVKRNNFVPTDVGPFAF-NH2) [SEQ ID NO 19] | 0.98 |  | 
CGGGGGGGVTHRLAGLLSRSGGVVKNNFVPTDVGPFAF-NH2 (not fully specified (residue 1); printed as CGGGGGGGVTHRLAGLLSRSGGVVKNNFVPTDVGPFAF-NH2) [SEQ ID NO 20] | 138 |  | fold loss of potency against SEQ ID NO:3 [2]: > 190 fold
CGGGGGGGVTHRLAGLLSRSGGVVKNNFVPTNVGSKAF-NH2 [SEQ ID NO 2] |  |  | IC50 [3]: 21.1 nM
Ac-WVTHRLAGLLSASGGVVRCNFVPTDVGPFAF-NH2 [SEQ ID NO 33] |  | 2.75 | 
Ac-WVTHRLAGLLSASGGVVRCNFVPTDVGPFAF-NH2 (not fully specified (residue 19); printed as Ac-WVTHRLAGLLSASGGVVRCNFVPTDVGPFAF-NH2) [SEQ ID NO 34] |  | 6.2 | 
Ac-WVTHRLAGLLSRSGGVVKNNFVPTDVGPFAF-NH2 (not fully specified (residue 18); printed as Ac-WVTHRLAGLLSRSGGVVKNNFVPTDVGPFAF-NH2) [SEQ ID NO 12] | 3.05 |  | fold loss of antagonist activity against SEQ ID NO:5 [2]: > 15 fold
Ac-WVTHRLAGLLS[dR]SGGVVRCNFVPTDVGPFAF-NH2 (SMILES CC(=O)N[C@@H](Cc1c[nH]c2ccccc12)C(=O)N[C@H](C(=O)N[C@H](C(=O)N[C@@H](Cc1c[nH]cn1)C(=O)N[C@@H](CCCNC(=N)N)C(=O)N[C@@H](CC(C)C)C(=O)N[C@@H](C)C(=O)NCC(=O)N[C@@H](CC(C)C)C(=O)N[C@@H](CC(C)C)C(=O)N[C@@H](CO)C(=O)N[C@H](CCCNC(=N)N)C(=O)N[C@@H](CO)C(=O)NCC(=O)NCC(=O)N[C@H](C(=O)N[C@H](C(=O)N[C@@H](CCCNC(=N)N)C(=O)N[C@@H](CS)C(=O)N[C@@H](CC(N)=O)C(=O)N[C@@H](Cc1ccccc1)C(=O)N[C@H](C(=O)N1CCC[C@H]1C(=O)N[C@H](C(=O)N[C@@H](CC(=O)O)C(=O)N[C@H](C(=O)NCC(=O)N1CCC[C@H]1C(=O)N[C@@H](Cc1ccccc1)C(=O)N[C@@H](C)C(=O)N[C@@H](Cc1ccccc1)C(N)=O)C(C)C)[C@@H](C)O)C(C)C)C(C)C)C(C)C)[C@@H](C)O)C(C)C) [SEQ ID NO 41] |  | 0.59 | 
Ac-WVTHRLAGLLSRSGGVVCNNFVPTDVGPFAF-NH2 [SEQ ID NO 9] | 2.15 |  | IC50 [3]: 2.15 nM
WVTHXLAGLLSXSGGVVRKNFVPTDVGPFAF (Ac-WVTH(hR)LAGLLS(hR)SGGVVRKNFVPTDVGPFAF-NH2) [SEQ ID NO 25] |  | 2.1 | fold loss of antagonist activity against SEQ ID NO:21 and 23 [2]: ~5 fold
WVTHXLAGLLSXSGGVVRKNFVPTDVGPFAF (Ac-WVTH(Cit)LAGLLS(Cit)SGGVVRKNFVPTDVGPFAF-NH2) [SEQ ID NO 31] |  | 1.8 | fold loss of potency against SEQ ID NO:27 and 29 [2]: ~3 fold; Ki [5]: 0.46 nM
WVTHXLAGLLSXSGGVVRKNFVPTDVGPFAF (Ac-WVTH(hR)LAGLLS(hR)SGGVVRKNFVPTDVGPFAF-NH2; 20 k Da PEG, Amine linkage) [SEQ ID NO 26] |  | 0.37 | 
WVTHXLAGLLSXSGGVVRKNFVPTDVGPFAF (Ac-WVTH(Cit)LAGLLS(Cit)SGGVVRKNFVPTDVGPFAF-NH2; 20 k Da PEG, Amine linkage) [SEQ ID NO 32] |  | 3.74 | 
WVTHXLAGLLSRSGGVVRKNFVPTDVGPFAF (Ac-WVTH(Cit)LAGLLSRSGGVVRKNFVPTDVGPFAF-NH2; 20 k Da PEG, Amine linkage) [SEQ ID NO 28] |  | 2.08 | 
WVTHRLAGLLSXSGGVVRKNFVPTDVGPFAF (Ac-WVTHRLAGLLS(Cit)SGGVVRKNFVPTDVGPFAF-NH2; 20 k Da PEG, Amine linkage) [SEQ ID NO 30] |  | 0.96 | 
WVTHRLAGLLSXSGGVVRKNFVPTDVGPFAF (Ac-WVTHRLAGLLS(Cit)SGGVVRKNFVPTDVGPFAF-NH2) [SEQ ID NO 29] |  | 0.58 | 
WVTHXLAGLLSRSGGVVRKNFVPTDVGPFAF (Ac-WVTH(Cit)LAGLLSRSGGVVRKNFVPTDVGPFAF-NH2) [SEQ ID NO 27] |  | 0.57 | 
Ac-WVTHRLAGLLSRSGGVVCNNFVPTDVGPFAF-NH2 (not fully specified (residue 18); printed as Ac-WVTHRLAGLLSRSGGVVCNNFVPTDVGPFAF-NH2) [SEQ ID NO 14] | 2.2 |  | 

Binder | IC50 [1] [nM] | IC50 [4] [nM] | other results
Ac-WVTHRLAGLLSQSGGVVRKNFVPTDVGPFAF-NH2 (not fully specified (residue 19); printed as Ac-WVTHRLAGLLSQSGGVVRKNFVPTDVGPFAF-NH2) [SEQ ID NO 38] |  | 0.11 | fold change in potency against SEQ ID NO:36 [2]: > 42 fold
WFVPTDVGPFAF-NH2 [SEQ ID NO 96] |  |  | IC50 [3]: 21.7 nM
WVTHRLAGLLSRSGGVVKNNFVPTNVGSKAF-NH2 [SEQ ID NO 4] |  |  | fold change in potency against SEQ ID NO:1 [2]: > 7 fold; IC50 [3]: 0.64 nM
Ac-WVTHRLAGLLSRSGGVVKNNFVPTDVGPFAF-NH2 (not fully specified (residue 18); printed as Ac-WVTHRLAGLLSRSGGVVKNNFVPTDVGPFAF-NH2) [SEQ ID NO 13] | 2.15 |  | fold loss of antagonist activity against SEQ ID NO:5 [2]: > 15 fold
Ac-WVTHRLAGLLSQSGGVVRCNFVPTDVGPFAF-NH2 [SEQ ID NO 35] |  | 0.37 | 
CGGGGGGGPTDVGPFAF-NH2 [SEQ ID NO 45] |  |  | IC50 [3]: 56.6 nM
Ac-WVTHRLAGLLSRSGGVVRCNFVPTDVGPFAF-NH2 (not fully specified (residue 19); printed as Ac-WVTHRLAGLLSRSGGVVRCNFVPTDVGPFAF-NH2) [SEQ ID NO 17] | 1.9 |  | 
Ac-WVTHRLAGLLSQSGGVVRCNFVPTDVGPFAF-NH2 (not fully specified (residue 19); printed as Ac-WVTHRLAGLLSQSGGVVRCNFVPTDVGPFAF-NH2) [SEQ ID NO 36] |  | 4.69 | fold loss of antagonist activity against SEQ ID NO:35 [2]: > 12 fold
Ac-WVTHQLAGLLSQSGGVVRKNFVPTDVGPFAF-NH2 [SEQ ID NO 39] |  | 0.53 | 
Ac-WVTHRLAGLLSRSGGVVRKNFVPTDVGPFAF-NH2 [SEQ ID NO 7] | 0.13 |  | IC50 [3]: 0.13 nM
Ac-WVTHRLAGLLSRSGGVVRKNFVPTDVGPFAF-NH2 (not fully specified (residue 19); printed as Ac-WVTHRLAGLLSRSGGVVRKNFVPTDVGPFAF-NH2) [SEQ ID NO 15] | 0.42 |  | fold change in potency against SEQ ID NO:1 [2]: ~12 fold; fold loss of antagonist activity against SEQ ID NO:7 [2]: ~3 fold
Ac-WVTHQLAGLLSQSGGVVRKNFVPTDVGPFAF-NH2 (not fully specified (residue 19); printed as Ac-WVTHQLAGLLSQSGGVVRKNFVPTDVGPFAF-NH2) [SEQ ID NO 40] |  | 1.33 | 
Ac-VTHRLAGLLSRSGGVVRKNFVPTDVGPFAF-NH2 [SEQ ID NO 6] |  |  | IC50 [3]: 0.7 nM; Ki [5]: 0.04 nM
Ac-WVTHRLAGLLSRSGGVVRKNFVPTDVGPFAF-NH2 (not fully specified (residue 19); printed as Ac-WVTHRLAGLLSRSGGVVRKNFVPTDVGPFAF-NH2) [SEQ ID NO 16] | 0.39 |  | fold change in potency against SEQ ID NO:1 [2]: ~12 fold; fold loss of antagonist activity against SEQ ID NO:7 [2]: ~3 fold
Ac-WVTHRLAGLLSQSGGVVRKNFVPTDVGPFAF-NH2 [SEQ ID NO 37] |  | 0.56 | 
Ac-WVTHRLAGLLS[dR]SGGVVRCNFVPTDVGPFAF-NH2 (not fully specified (residue 19); printed as Ac-WVTHRLAGLLSrSGGVVRCNFVPTDVGPFAF-NH2) [SEQ ID NO 42] |  | 19.4 | fold loss of antagonist activity against SEQ ID NO:41 [2]: > 32 fold
Ac-WVTHRLAGLLSRSGGVCRNNFVPTDVGPFAF-NH2 (not fully specified (residue 17); printed as Ac-WVTHRLAGLLSRSGGVCRNNFVPTDVGPFAF-NH2) [SEQ ID NO 18] | 0.16 |  | fold change in potency against SEQ ID NO:1 [2]: ~31 fold

Source: patent US20080020978A1 (Amgen, published 2008)
